The target of the test is S protein (UniProt P61823). Description: affinity column capture; EGFP fluorescence of column fractions as percent of input.
Chain of UniProt P61823 (P61823 47-150): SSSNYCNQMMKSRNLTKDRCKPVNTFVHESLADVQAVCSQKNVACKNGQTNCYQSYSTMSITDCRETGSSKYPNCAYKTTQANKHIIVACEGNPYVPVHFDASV

Regarding S tag-bearing target protein (EGFP), the percent of input target protein bound stood at 50%.

Values taken from US20250027939A1.
